Experiment [1] has as its target desmoglein (on Fsk-7.1 mouse mammary epithelial cells) (mouse). As to the kind of experiment: cell-based or functional assay.
Experiment [2] concerns the target desmocollin (on Fsk-7.1 mouse mammary epithelial cells) (mouse). The experiment can be described thus: cell-based or functional assay.

Take Ac-CRALC-NH2 (also: cyclic peptide, bond of cyclisation not given here) [Ac-CRALC-NH2 (SEQ ID NO: 4236)]: in experiment [1], the % (single cells + clusters <4 cells); alveolar aggregate formation of Fsk-7.1 cells, 24 hr, no desmocollin peptide was determined as 12.9%; the % (single cells + clusters <4 cells); alveolar aggregate formation of Fsk-7.1 cells, 24 hr, together with Ac-CFATC-NH2 was 33.6%; the % (single cells + clusters <4 cells); alveolar aggregate formation of Fsk-7.1 cells, 24 hr, together with Ac-CYASC-NH2 was 37.2%; the % (single cells + clusters <4 cells); alveolar aggregate formation of Fsk-7.1 cells, 24 hr, together with Ac-CYATC-NH2 was found to be 19.6%.
Regarding Ac-CFATC-NH2 (also: cyclic peptide, bond of cyclisation not given here) [Ac-CFATC-NH2 (SEQ ID NO: 5009)], in experiment [2], the % (single cells + clusters <4 cells); alveolar aggregate formation of Fsk-7.1 cells, 24 hr, no desmoglein peptide is 13.1%; the % (single cells + clusters <4 cells); alveolar aggregate formation of Fsk-7.1 cells, 24 hr, together with Ac-CRALC-NH2 is 33.6%; the % (single cells + clusters <4 cells); alveolar aggregate formation of Fsk-7.1 cells, 24 hr, together with H-…-OH amounted to 39.5%.
Take H-LTAFATTPDG-OH [H-…-OH (SEQ ID NO: 5284)]: in experiment [2], the % (single cells + clusters <4 cells); alveolar aggregate formation of Fsk-7.1 cells, 24 hr, no desmoglein peptide worked out at 28% and the % (single cells + clusters <4 cells); alveolar aggregate formation of Fsk-7.1 cells, 24 hr, together with H-…-OH was 36.5%.
As to Ac-CYASC-NH2 (also: cyclic peptide, bond of cyclisation not given here) [Ac-CYASC-NH2 (SEQ ID NO: 5156)], in experiment [2], the % (single cells + clusters <4 cells); alveolar aggregate formation of Fsk-7.1 cells, 24 hr, no desmoglein peptide was found to be 12.9%; the % (single cells + clusters <4 cells); alveolar aggregate formation of Fsk-7.1 cells, 24 hr, together with Ac-CRALC-NH2 came to 37.2%; the % (single cells + clusters <4 cells); alveolar aggregate formation of Fsk-7.1 cells, 24 hr, together with H-…-OH stood at 57.2%.
With Ac-CYATC-NH2 (also: cyclic peptide, bond of cyclisation not given here) [Ac-CYATC-NH2 (SEQ ID NO: 4683)], in experiment [2], the % (single cells + clusters <4 cells); alveolar aggregate formation of Fsk-7.1 cells, 24 hr, no desmoglein peptide is 18.2%; the % (single cells + clusters <4 cells); alveolar aggregate formation of Fsk-7.1 cells, 24 hr, together with Ac-CRALC-NH2 is 19.6%; the % (single cells + clusters <4 cells); alveolar aggregate formation of Fsk-7.1 cells, 24 hr, together with H-…-OH turned out to be 58.6%.
As to H-LTGYALDSRG-OH [H-…-OH (SEQ ID NO: 5283)], in experiment [1], the % (single cells + clusters <4 cells); alveolar aggregate formation of Fsk-7.1 cells, 24 hr, no desmocollin peptide amounted to 21.7%; the % (single cells + clusters <4 cells); alveolar aggregate formation of Fsk-7.1 cells, 24 hr, together with Ac-CFATC-NH2 amounted to 39.5%; the % (single cells + clusters <4 cells); alveolar aggregate formation of Fsk-7.1 cells, 24 hr, together with Ac-CYASC-NH2 worked out at 57.2%; the % (single cells + clusters <4 cells); alveolar aggregate formation of Fsk-7.1 cells, 24 hr, together with Ac-CYATC-NH2 turned out to be 58.6%. For the same molecule, the % (single cells + clusters <4 cells); alveolar aggregate formation of Fsk-7.1 cells, 24 hr, together with H-…-OH in experiment [1] was 36.5%.

Source of the values: patent US20050203025A1.
